T1: recombinant human activated Factor VII (FVIIa) (human, UniProt P08709 61-212; P08709 213-466, ten glutamate residues of the Gla domain may be gamma-carboxylated)
T1 construct: chains tethered by a disulfide bond; also called Factor VIIa; rFVIIa
T1 sequence 1: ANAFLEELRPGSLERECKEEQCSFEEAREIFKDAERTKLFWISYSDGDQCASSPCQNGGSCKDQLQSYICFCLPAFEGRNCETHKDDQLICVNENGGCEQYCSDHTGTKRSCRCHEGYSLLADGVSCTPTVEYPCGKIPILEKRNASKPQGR
T1 sequence 2: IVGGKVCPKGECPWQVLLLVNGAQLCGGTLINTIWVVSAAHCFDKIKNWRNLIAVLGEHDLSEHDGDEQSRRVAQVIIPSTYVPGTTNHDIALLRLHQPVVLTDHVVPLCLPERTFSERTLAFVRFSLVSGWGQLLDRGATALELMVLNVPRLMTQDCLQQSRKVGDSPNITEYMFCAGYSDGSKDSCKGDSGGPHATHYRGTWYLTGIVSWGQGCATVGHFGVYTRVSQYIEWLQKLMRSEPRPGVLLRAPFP

B1: VH SEQ ID NO 618 / VL SEQ ID NO 478 (antibody, IgG4, V domains shown)
VH: QVQLQESGPGLVKPSQTLSLTCTVSGYSISSDSAWSWIRQFPGKGLEWIGYIQYSGSTNYNPSLKSRVTISRDTSKNQFSLKLSSVTAADTAVYYCARSVNYYGNSFAVGPWGQGTLVTVSS
VL: EIVLTQSPATLSLSPGERATLSCRASQGVSDYLHWYQQKPGQAPRLLIKYASQPATGIPARFSGSGSGTDFTLTISSLEPEDFAVYYCQQGHSFPLTFGQGTKLEIK
notes: humanized 11F2; IgG4 S228P/kappa
B2: VH SEQ ID NO 618 / VL SEQ ID NO 494 (antibody, IgG4, V domains shown)
VH: QVQLQESGPGLVKPSQTLSLTCTVSGYSISSDSAWSWIRQFPGKGLEWIGYIQYSGSTNYNPSLKSRVTISRDTSKNQFSLKLSSVTAADTAVYYCARSVNYYGNSFAVGPWGQGTLVTVSS
VL: EIVLTQSPATLSLSPGERATLSCRASQGVSDYLHWYQQKPGQAPRLLIKYASQPATGIPARFSGSGSGTDFTLTISSLEPEDVAVYYCQNGHSFPLTFGQGTKLEIK
notes: as for B1
B3: VH SEQ ID NO 618 / VL SEQ ID NO 486 (antibody, IgG4, V domains shown)
VH: QVQLQESGPGLVKPSQTLSLTCTVSGYSISSDSAWSWIRQFPGKGLEWIGYIQYSGSTNYNPSLKSRVTISRDTSKNQFSLKLSSVTAADTAVYYCARSVNYYGNSFAVGPWGQGTLVTVSS
VL: EIVLTQSPATLSLSPGERATLSCRASQGVSDYLHWYQQKPGQAPRLLIKYASQPATGIPARFSGSGSGTDFTLTISSLEPEDFGVYYCQNGHSFPLTFGQGTKLEIK
notes: as for B1
B4: VH SEQ ID NO 626 / VL SEQ ID NO 342 (antibody, IgG4, V domains shown)
VH: QVQLQESGPGLVKPSQTLSLTCTVSGYSISSDSAWSWIRQPPGKGLEWIGYIQYSGSTNYNPSLKSRVTISRDTSKNQFSLKLSSVTAADTAVYYCARSVNYYGNSFAVGPWGQGTLVTVSS
VL: EIVLTQSPATLSLSPGERATLSCRASQGISDYLHWYQQKPGQAPRLLIKYTSQPATGIPARFSGSGSGRDFTLTISSLEPEDFAVYYCQNGHSFPLTFGAGTKLELK
notes: as for B1
B5: VH SEQ ID NO 626 / VL SEQ ID NO 398 (antibody, IgG4, V domains shown)
VH: QVQLQESGPGLVKPSQTLSLTCTVSGYSISSDSAWSWIRQPPGKGLEWIGYIQYSGSTNYNPSLKSRVTISRDTSKNQFSLKLSSVTAADTAVYYCARSVNYYGNSFAVGPWGQGTLVTVSS
VL: EIVLTQSPATLSLSPGERATLSCRASQGVSDYLAWYQQKPGEAPRLLIKYTSQPATGIPARFSGSGSGTDFTLTISSLEPEDFAVYYCQNGHSFPLTFGQGTKLEIK
notes: as for B1
B6: VH SEQ ID NO 626 / VL SEQ ID NO 430 (antibody, IgG4, V domains shown)
VH: QVQLQESGPGLVKPSQTLSLTCTVSGYSISSDSAWSWIRQPPGKGLEWIGYIQYSGSTNYNPSLKSRVTISRDTSKNQFSLKLSSVTAADTAVYYCARSVNYYGNSFAVGPWGQGTLVTVSS
VL: EIVLTQSPATLSLSPGERATLSCRASQGVSDYLAWYQQKPGQAPRLLIKYASQPATGIPARFSGSGSGTDFTLTISSLEPEDFGVYYCQNGHSFPLTFGQGTKLEIK
notes: as for B1
B7: VH SEQ ID NO 626 / VL SEQ ID NO 318 (antibody, IgG4, V domains shown)
VH: QVQLQESGPGLVKPSQTLSLTCTVSGYSISSDSAWSWIRQPPGKGLEWIGYIQYSGSTNYNPSLKSRVTISRDTSKNQFSLKLSSVTAADTAVYYCARSVNYYGNSFAVGPWGQGTLVTVSS
VL: EIVLTQSPATLSLSPGERATLSCRASQGISDYLHWYQQKPGEAPRLLIKYTSQPATGIPARFSGSGSGTDFTLTISSLEPEDFAVYYCQNGHSFPLTFGQGTKLEIK
notes: as for B1
B8: VH SEQ ID NO 626 / VL SEQ ID NO 326 (antibody, IgG4, V domains shown)
VH: QVQLQESGPGLVKPSQTLSLTCTVSGYSISSDSAWSWIRQPPGKGLEWIGYIQYSGSTNYNPSLKSRVTISRDTSKNQFSLKLSSVTAADTAVYYCARSVNYYGNSFAVGPWGQGTLVTVSS
VL: EIVLTQSPATLSLSPGERATLSCRASQGISDYLHWYQQKPGEAPRLLIKYTSQPATGIPARFSGSGSGTDFTLTISSLEPEDFGVYYCQNGHSFPLTFGAGTKLELK
notes: as for B1
B9: VH SEQ ID NO 626 / VL SEQ ID NO 438 (antibody, IgG4, V domains shown)
VH: QVQLQESGPGLVKPSQTLSLTCTVSGYSISSDSAWSWIRQPPGKGLEWIGYIQYSGSTNYNPSLKSRVTISRDTSKNQFSLKLSSVTAADTAVYYCARSVNYYGNSFAVGPWGQGTLVTVSS
VL: EIVLTQSPATLSLSPGERATLSCRASQGVSDYLAWYQQKPGQAPRLLIKYASQPATGIPARFSGSGSGTDFTLTISSLEPEDVAVYYCQNGHSFPLTFGQGTKLEIK
notes: as for B1
B10: VH SEQ ID NO 626 / VL SEQ ID NO 366 (antibody, IgG4, V domains shown)
VH: QVQLQESGPGLVKPSQTLSLTCTVSGYSISSDSAWSWIRQPPGKGLEWIGYIQYSGSTNYNPSLKSRVTISRDTSKNQFSLKLSSVTAADTAVYYCARSVNYYGNSFAVGPWGQGTLVTVSS
VL: EIVLTQSPATLSLSPGERATLSCRASQGLSDYLAWYQQKPGEAPRLLIKYASQPATGIPARFSGSGSGTDFTLTISSLEPEDFAVYYCQNGHSFPLTFGQGTKLEIK
notes: as for B1
B11: VH SEQ ID NO 626 / VL SEQ ID NO 334 (antibody, IgG4, V domains shown)
VH: QVQLQESGPGLVKPSQTLSLTCTVSGYSISSDSAWSWIRQPPGKGLEWIGYIQYSGSTNYNPSLKSRVTISRDTSKNQFSLKLSSVTAADTAVYYCARSVNYYGNSFAVGPWGQGTLVTVSS
VL: EIVLTQSPATLSLSPGERATLSCRASQGISDYLHWYQQKPGQAPRLLIKYASQPATGIPARFSGSGSGTDFTLTISSLEPEDFAVYYCQNGHSFPLTFGQGTKLEIK
notes: as for B1
B12: VH SEQ ID NO 626 / VL SEQ ID NO 422 (antibody, IgG4, V domains shown)
VH: QVQLQESGPGLVKPSQTLSLTCTVSGYSISSDSAWSWIRQPPGKGLEWIGYIQYSGSTNYNPSLKSRVTISRDTSKNQFSLKLSSVTAADTAVYYCARSVNYYGNSFAVGPWGQGTLVTVSS
VL: EIVLTQSPATLSLSPGERATLSCRASQGVSDYLAWYQQKPGQAPRLLIKYASQPATGIPARFSGSGSGTDFTLTISSLEPEDFAVYYCQQGHSFPLTFGQGTKLEIK
notes: as for B1
B13: VH SEQ ID NO 626 / VL SEQ ID NO 358 (antibody, IgG4, V domains shown)
VH: QVQLQESGPGLVKPSQTLSLTCTVSGYSISSDSAWSWIRQPPGKGLEWIGYIQYSGSTNYNPSLKSRVTISRDTSKNQFSLKLSSVTAADTAVYYCARSVNYYGNSFAVGPWGQGTLVTVSS
VL: EIVLTQSPATLSLSPGERATLSCRASQGISDYLHWYQQKPGQAPRLLIKYTSQPATGIPARFSGSGSGTDFTLTISSLEPEDFAVYYCQNGHSFPLTFGQGTKLEIK
notes: as for B1
B14: VH SEQ ID NO 626 / VL SEQ ID NO 382 (antibody, IgG4, V domains shown)
VH: QVQLQESGPGLVKPSQTLSLTCTVSGYSISSDSAWSWIRQPPGKGLEWIGYIQYSGSTNYNPSLKSRVTISRDTSKNQFSLKLSSVTAADTAVYYCARSVNYYGNSFAVGPWGQGTLVTVSS
VL: EIVLTQSPATLSLSPGERATLSCRASQGLSDYLHWYQQKPGEAPRLLIKYASQPATGIPARFSGSGSGTDFTLTISSLEPEDFAVYYCQNGHSFPLTFGQGTKLEIK
notes: as for B1
B15: VH SEQ ID NO 618 / VL SEQ ID NO 502 (antibody, IgG4, V domains shown)
VH: QVQLQESGPGLVKPSQTLSLTCTVSGYSISSDSAWSWIRQFPGKGLEWIGYIQYSGSTNYNPSLKSRVTISRDTSKNQFSLKLSSVTAADTAVYYCARSVNYYGNSFAVGPWGQGTLVTVSS
VL: EIVLTQSPATLSLSPGERATLSCRASQGVSDYLHWYQQKPGQAPRLLIKYTSQPATGIPARFSGSGSGTDFTLTISSLEPEDFAVYYCQNGHSFPLTFGQGTKLEIK
notes: as for B1
B16: VH SEQ ID NO 626 / VL SEQ ID NO 310 (antibody, IgG4, V domains shown)
VH: QVQLQESGPGLVKPSQTLSLTCTVSGYSISSDSAWSWIRQPPGKGLEWIGYIQYSGSTNYNPSLKSRVTISRDTSKNQFSLKLSSVTAADTAVYYCARSVNYYGNSFAVGPWGQGTLVTVSS
VL: EIVLTQSPATLSLSPGERATLSCRASQGISDYLAWYQQKPGQAPRLLIKYASQPATGIPARFSGSGSGTDFTLTISSLEPEDFAVYYCQNGHSFPLTFGQGTKLEIK
notes: as for B1
B17: VH SEQ ID NO 626 / VL SEQ ID NO 406 (antibody, IgG4, V domains shown)
VH: QVQLQESGPGLVKPSQTLSLTCTVSGYSISSDSAWSWIRQPPGKGLEWIGYIQYSGSTNYNPSLKSRVTISRDTSKNQFSLKLSSVTAADTAVYYCARSVNYYGNSFAVGPWGQGTLVTVSS
VL: EIVLTQSPATLSLSPGERATLSCRASQGVSDYLAWYQQKPGQAPRLLIKYASQPATGIPARFSGSGSGTDFTLTISSLEPEDFAVYYCQNGHSFPLTFGAGTKLEIK
notes: as for B1
B18: VH SEQ ID NO 626 / VL SEQ ID NO 390 (antibody, IgG4, V domains shown)
VH: QVQLQESGPGLVKPSQTLSLTCTVSGYSISSDSAWSWIRQPPGKGLEWIGYIQYSGSTNYNPSLKSRVTISRDTSKNQFSLKLSSVTAADTAVYYCARSVNYYGNSFAVGPWGQGTLVTVSS
VL: EIVLTQSPATLSLSPGERATLSCRASQGVSDYLAWYQQKPGEAPRLLIKYASQPATGIPARFSGSGSGTDFTLTISSLEPEDFAVYYCQNGHSFPLTFGQGTKLEIK
notes: as for B1
B19: VH SEQ ID NO 626 / VL SEQ ID NO 414 (antibody, IgG4, V domains shown)
VH: QVQLQESGPGLVKPSQTLSLTCTVSGYSISSDSAWSWIRQPPGKGLEWIGYIQYSGSTNYNPSLKSRVTISRDTSKNQFSLKLSSVTAADTAVYYCARSVNYYGNSFAVGPWGQGTLVTVSS
VL: EIVLTQSPATLSLSPGERATLSCRASQGVSDYLAWYQQKPGQAPRLLIKYASQPATGIPARFSGSGSGTDFTLTISSLEPEDFAVYYCQNGHSFPLTFGQGTKLEIK
notes: as for B1
B20: VH SEQ ID NO 626 / VL SEQ ID NO 350 (antibody, IgG4, V domains shown)
VH: QVQLQESGPGLVKPSQTLSLTCTVSGYSISSDSAWSWIRQPPGKGLEWIGYIQYSGSTNYNPSLKSRVTISRDTSKNQFSLKLSSVTAADTAVYYCARSVNYYGNSFAVGPWGQGTLVTVSS
VL: EIVLTQSPATLSLSPGERATLSCRASQGISDYLHWYQQKPGQAPRLLIKYTSQPATGIPARFSGSGSGTDFTLTISSLEPEDFAVYYCQNGHSFPLTFGAGTKLELK
notes: as for B1

In the assay the target is T1, recombinant human activated Factor VII …. The experiment in a line: BLI (Fortebio). In general terms: In BLI a coated tip is dipped into the sample, and binding shifts an interference pattern.
Regarding B1, the Kd – broadly, the equilibrium constant for the complex coming apart – stood at 2 nM.

Turning to B2, the Kd came out at 1.4 nM. For B3, the equilibrium dissociation constant (Kd) was found to be 1.2 nM. With B4, the equilibrium dissociation constant (Kd) came to 0.85 nM.

With B5, the dissociation constant (Kd) came out at 820 nM. As for B6, the figure is 53 nM.

For the molecule B7, the Kd was found to be 0.71 nM. Consider B8, for which the Kd stood at 0.79 nM.

Regarding B9, the Kd stood at 77 nM. For B10, the dissociation constant Kd turned out to be 87 nM. Regarding B11, the dissociation constant (Kd) was found to be 0.95 nM. In the case of B12, the equilibrium dissociation constant (Kd) was found to be 2400 nM. Regarding B13, the Kd is 0.72 nM. As for B14, the figure is 1.1 nM; as for B15, 1.2 nM; as for B16, 9.2 nM. On to B17, for which the equilibrium dissociation constant (Kd) stood at 87 nM.

In the case of B18, the dissociation constant (Kd) stood at 27 nM. As for B19, the figure is 18 nM; as for B20, 0.65 nM.

The record behind these values is patent publication US20220064329A1 (Novo Nordisk, published 2022).
